Residue numbers refer to the chain shown, from its start. Names may count otherwise. “And” between values parts separate entries of the source, which are not always exact repeats. Identical values can stand only once.
Experiments:
Fu-bc subunit protein [1] = biological target: T1, Fu-bc subunit protein (Dengue virus (DENV-2-like E domain II), …); test: SPR
T1 chain: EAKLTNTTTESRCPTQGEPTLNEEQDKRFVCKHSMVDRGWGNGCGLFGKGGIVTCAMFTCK

Fu-bc subunit protein [2] = biological target: T1, Fu-bc subunit protein; test: BLI
[3] = biological target: T2, Fu-bc fused to the GAL4 activation domain (pGADT7) (Dengue virus (DENV-2-like E domain II), …); test: two-hybrid
T2 chain: T1 chain

B1: scFv-Mutant9 (S227W) (scFv, V domains shown)
VH: EVKLVESGGGLVLPGGSLRLSCATSGFTFTDYYMTWVRQPPGKALEWLGFIGNKANDYTTEYSASVKGRFTISRDDSQSILYLQMSTLRAEDRATYYCATVYGNYPYFDVWGAGTTVAVSS
VL: QIVLTQSPAIMSASPGEKVTMTCSASSSVSYMHWYQQKSGTSPKIWIYESSKLASGVPVRFSGSGSGTSYSLTISSMEAEDVATYYCQQWSWHPHPLTFGAGTKLELK
binding result (Fu-bc subunit protein [1]): binds

B2: scFv double mutant T30W, S227L (scFv, V domains shown)
VH: B1 VH with T30W
VL: B1 VL with W92L
binding result (Fu-bc subunit protein [1]): binds

B3: scFv double mutant12 (T30W, S227W) (scFv, V domains shown)
VH: B1 VH with T30W
VL: B1 VL
binding result (Fu-bc subunit protein [1]): binds

B4: scFv double mutant13 (Y33Q, G103T) (scFv, V domains shown)
VH: B1 VH with Y33Q, G103T
VL: B1 VL with W92S
fold change in affinity against the WT (Fu-bc subunit protein [1]): 45 fold

B5: scFv-mutant15 (D31L, Y105W, S227W) (scFv, V domains shown)
VH: B1 VH with D31L, Y105W
VL: B1 VL
Kd (Fu-bc subunit protein [2]): 21 ± 11 nM
Kd (Fu-bc subunit protein [1]): 24 nM and 20 to 52 nM

B6: scFv-Mutant1 (T30W) (scFv, V domains shown)
VH: B1 VH with T30W
VL: B1 VL with W92S
binding result (Fu-bc subunit protein [1]): binds

B7: scFv-mutant16 (T30W, Y33Q, S227W) (scFv, V domains shown)
VH: B1 VH with T30W, Y33Q
VL: B1 VL
Kd (Fu-bc subunit protein [2]): 47 ± 19 nM
Kd (Fu-bc subunit protein [1]): 52 ± 17 nM

B8: scFv-mutant17 (Y33Q, G103T, S227L) (scFv, V domains shown)
VH: B1 VH with Y33Q, G103T
VL: B1 VL with W92L
Kd (Fu-bc subunit protein [2]): 31 ± 14 nM
Kd (Fu-bc subunit protein [1]): 27 ± 11 nM

B9: scFv-mutant18 (Y33Q, Y105W, H230W) (scFv, V domains shown)
VH: B1 VH with Y33Q, Y105W
VL: B1 VL with W92S, H95W
Kd (Fu-bc subunit protein [2]): 310 ± 35 nM
fold change in affinity against the WT (Fu-bc subunit protein [1]): ~7 fold

B10: scFv-mutant15 fused to the GAL4 DNA-binding domain (pGBKT7) (scFv, V domains shown)
VH: B1 VH with D31L, Y105W
VL: B1 VL
binding result [3]: binds

B11: scFv-mutant16 fused to the GAL4 DNA-binding domain (pGBKT7) (scFv, V domains shown)
VH: B1 VH with T30W, Y33Q
VL: B1 VL
binding result [3]: binds

B12: scFv-mutant17 fused to the GAL4 DNA-binding domain (pGBKT7) (scFv, V domains shown)
VH: B1 VH with Y33Q, G103T
VL: B1 VL with W92L
binding result [3]: binds

B13: scFv single mutant D31L (scFv, V domains shown)
VH: B1 VH with D31L
VL: B1 VL with W92S
binding result (Fu-bc subunit protein [1]): binds

B14: scFv-mutant18 fused to the GAL4 DNA-binding domain (pGBKT7) (scFv, V domains shown)
VH: B1 VH with Y33Q, Y105W
VL: B1 VL with W92S, H95W
binding result [3]: binds

B15: scFv single mutant D31F (scFv, V domains shown)
VH: B1 VH with D31F
VL: B1 VL with W92S
binding result (Fu-bc subunit protein [1]): binds

B16: scFv-Mutant5 (Y33Q) (scFv, V domains shown)
VH: B1 VH with Y33Q
VL: B1 VL with W92S
Kd (Fu-bc subunit protein [1]): 302 ± 15 nM

B17: scFv-Mutant6 (G103T) (scFv, V domains shown)
VH: B1 VH with G103T
VL: B1 VL with W92S
binding result (Fu-bc subunit protein [1]): binds

B18: scFv-Mutant7 (Y105W) (scFv, V domains shown)
VH: B1 VH with Y105W
VL: B1 VL with W92S
binding result (Fu-bc subunit protein [1]): binds

B19: scFv-Mutant8 (S227L) (scFv, V domains shown)
VH: B1 VH
VL: B1 VL with W92L
binding result (Fu-bc subunit protein [1]): binds
